Target: NTSR1
Assay: cell-based or functional assay

decrease in cell growth (proliferation) of CHO cells overexpressing NTSR1: 60%
Substance: Neurotensin (NTS) (from UniProt P30990 151-163) (peptide)

From patent US20170233470A1
